Drawing on US20240391971A1, this text covers Relative activity ratio (native GDF15 EC50: Fc-GDF15 construct EC50), ERK1/2 phosphorylation HTRF in HEK293T cells expressing human GFRAL and RET for one substance.

The test has as its target human GFRAL (UniProtKB-Q6UXV0) (human) (UniProt Q6UXV0). Nature of the test: cell-based or functional assay.

Sequence of human GFRAL (Q6UXV0 19-394): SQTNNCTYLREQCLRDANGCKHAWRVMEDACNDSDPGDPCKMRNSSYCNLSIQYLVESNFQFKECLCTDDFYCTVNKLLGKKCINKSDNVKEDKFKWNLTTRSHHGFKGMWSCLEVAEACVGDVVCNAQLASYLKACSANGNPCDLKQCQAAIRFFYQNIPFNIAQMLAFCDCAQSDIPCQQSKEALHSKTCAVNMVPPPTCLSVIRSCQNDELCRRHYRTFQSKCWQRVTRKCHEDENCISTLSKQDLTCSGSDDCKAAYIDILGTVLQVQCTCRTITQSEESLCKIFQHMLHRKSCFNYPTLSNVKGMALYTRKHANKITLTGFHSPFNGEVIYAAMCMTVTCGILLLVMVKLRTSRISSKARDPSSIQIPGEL

For the substance “native GDF15 (ACROBiosystems, GD5-H5149) (from UniProt Q99988 195-308) (ligand)”, the Relative activity ratio (native GDF15 EC50: Fc-GDF15 construct EC50), ERK1/2 phosphorylation HTRF in HEK293T cells expressing human GFRAL and RET was found to be 1.
